Data on one substance can be found in patent publication US20170115293A1.

The target in the experiment is FAS (CD95, APO-1) death receptor (human) (UniProt P25445). Put plainly: cell-based or functional assay.
Chain of UniProt P25445 (P25445 26-335): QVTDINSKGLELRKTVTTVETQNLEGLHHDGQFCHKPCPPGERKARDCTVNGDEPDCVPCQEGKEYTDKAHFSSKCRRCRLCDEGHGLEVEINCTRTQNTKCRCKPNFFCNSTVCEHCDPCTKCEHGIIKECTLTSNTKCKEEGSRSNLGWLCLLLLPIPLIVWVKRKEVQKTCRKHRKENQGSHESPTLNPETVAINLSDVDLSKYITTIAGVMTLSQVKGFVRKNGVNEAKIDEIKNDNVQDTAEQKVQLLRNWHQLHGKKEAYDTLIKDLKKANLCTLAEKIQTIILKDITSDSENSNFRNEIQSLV

“CH11, a FAS agonistic (stimulating) antibody (monoclonal mouse antibody, cat. no. 05-201; EMD Millipore)” displayed a clonogenic cell survival of SUM159: radiation dose to achieve a surviving fraction of 0.1 of 3.25 Gy and a clonogenic cell survival of SUM159 after irradiation: dose-modifying factor of 2.5.
